From IntAct's records for PubMed 29892012 come the findings set out here.

The chains are these.
B1: Late cornified envelope protein 1B (Homo sapiens), Q5T7P3 (parent)
chain: MSCQQNQQQCQPPPKCIPKCPPKCLTPRCPPKCPPKCPPVSSCCSVSSGGCCGSSSGGSCGSSSGGCCSSGGGGCCLSHHRRRRSHCHRPQSSGCCSQPSGGSSCCGGGSGQHSGGCC
partner: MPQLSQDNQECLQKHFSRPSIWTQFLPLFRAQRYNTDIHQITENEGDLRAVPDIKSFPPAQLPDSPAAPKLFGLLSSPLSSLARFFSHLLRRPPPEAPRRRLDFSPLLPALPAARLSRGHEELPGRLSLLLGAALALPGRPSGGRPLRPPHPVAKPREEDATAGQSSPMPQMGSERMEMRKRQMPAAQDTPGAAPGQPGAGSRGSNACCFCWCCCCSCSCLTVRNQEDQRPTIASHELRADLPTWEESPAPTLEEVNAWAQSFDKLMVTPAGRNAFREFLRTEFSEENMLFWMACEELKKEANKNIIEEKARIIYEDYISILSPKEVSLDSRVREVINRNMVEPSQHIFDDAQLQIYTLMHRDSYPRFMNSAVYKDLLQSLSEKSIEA
B2: Late cornified envelope protein 1B (Homo sapiens), Q5T7P3 (parent)
chain: B1 chain
partner: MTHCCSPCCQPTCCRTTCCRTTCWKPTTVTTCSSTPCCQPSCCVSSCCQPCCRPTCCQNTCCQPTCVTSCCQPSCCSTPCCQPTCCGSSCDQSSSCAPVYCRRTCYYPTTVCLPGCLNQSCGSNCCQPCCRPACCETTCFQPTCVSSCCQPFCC
B3: Late cornified envelope protein 1B (Homo sapiens), Q5T7P3 (parent)
chain: B1 chain
partner: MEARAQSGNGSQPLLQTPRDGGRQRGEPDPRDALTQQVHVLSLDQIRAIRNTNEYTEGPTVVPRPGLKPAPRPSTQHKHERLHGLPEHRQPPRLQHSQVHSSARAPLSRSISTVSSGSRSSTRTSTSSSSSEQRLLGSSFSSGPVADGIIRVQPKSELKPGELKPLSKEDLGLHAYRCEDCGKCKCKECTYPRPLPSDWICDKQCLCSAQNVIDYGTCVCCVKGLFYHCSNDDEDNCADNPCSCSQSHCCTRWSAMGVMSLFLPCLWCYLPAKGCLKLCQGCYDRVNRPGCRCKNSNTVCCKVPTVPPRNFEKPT
B4: E3 ubiquitin-protein ligase TRIM17 (Homo sapiens), Q9Y577 (parent)
chain: MEAVELARKLQEEATCSICLDYFTDPVMTTCGHNFCRACIQLSWEKARGKKGRRKRKGSFPCPECREMSPQRNLLPNRLLTKVAEMAQQHPGLQKQDLCQEHHEPLKLFCQKDQSPICVVCRESREHRLHRVLPAEEAVQGYKLKLEEDMEYLREQITRTGNLQAREEQSLAEWQGKVKERRERIVLEFEKMNLYLVEEEQRLLQALETEEEETASRLRESVACLDRQGHSLELLLLQLEERSTQGPLQMLQDMKEPLSRKNNVSVQCPEVAPPTRPRTVCRVPGQIEVLRGFLEDVVPDATSAYPYLLLYESRQRRYLGSSPEGSGFCSKDRFVAYPCAVGQTAFSSGRHYWEVGMNITGDALWALGVCRDNVSRKDRVPKCPENGFWVVQLSKGTKYLSTFSALTPVMLMEPPSHMGIFLDFEAGEVSFYSVSDGSHLHTYSQATFPGPLQPFFCLGAPKSGQMVISTVTMWVKG
partner: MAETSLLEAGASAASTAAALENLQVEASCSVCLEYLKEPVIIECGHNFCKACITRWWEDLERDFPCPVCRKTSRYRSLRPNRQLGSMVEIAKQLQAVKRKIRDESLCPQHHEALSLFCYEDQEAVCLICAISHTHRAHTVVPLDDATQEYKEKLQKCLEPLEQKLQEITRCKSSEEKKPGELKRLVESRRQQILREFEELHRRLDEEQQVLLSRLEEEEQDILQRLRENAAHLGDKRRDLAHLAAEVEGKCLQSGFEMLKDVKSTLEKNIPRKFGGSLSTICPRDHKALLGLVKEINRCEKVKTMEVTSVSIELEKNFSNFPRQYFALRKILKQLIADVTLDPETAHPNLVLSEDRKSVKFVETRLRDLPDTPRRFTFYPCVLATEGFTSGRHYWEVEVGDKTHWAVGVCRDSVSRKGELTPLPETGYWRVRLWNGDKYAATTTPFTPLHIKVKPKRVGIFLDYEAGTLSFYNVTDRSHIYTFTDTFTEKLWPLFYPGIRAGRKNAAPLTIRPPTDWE
B5: Zinc finger CCCH domain-containing protein 11A (Homo sapiens), O75152 (parent)
chain: MPNQGEDCYFFFYSTCTKGDSCPFRHCEAAIGNETVCTLWQEGRCFRQVCRFRHMEIDKKRSEIPCYWENQPTGCQKLNCAFHHNRGRYVDGLFLPPSKTVLPTVPESPEEEVKASQLSVQQNKLSVQSNPSPQLRSVMKVESSENVPSPTHPPVVINAADDDEDDDDQFSEEGDETKTPTLQPTPEVHNGLRVTSVRKPAVNIKQGECLNFGIKTLEEIKSKKMKEKSKKQGEGSSGVSSLLLHPEPVPGPEKENVRTVVRTVTLSTKQGEEPLVRLSLTERLGKRKFSAGGDSDPPLKRSLAQRLGKKVEAPETNIDKTPKKAQVSKSLKERLGMSADPDNEDATDKVNKVGEIHVKTLEEILLERASQKRGELQTKLKTEGPSKTDDSTSGARSSSTIRIKTFSEVLAEKKHRQQEAERQKSKKDTTCIKLKIDSEIKKTVVLPPIVASRGQSEEPAGKTKSMQEVHIKTLEEIKLEKALRVQQSSESSTSSPSQHEATPGARRLLRITKRTGMKEEKNLQEGNEVDSQSSIRTEAKEASGETTGVDITKIQVKRCETMREKHMQKQQEREKSVLTPLRGDVASCNTQVAEKPVLTAVPGITRHLTKRLPTKSSQKVEVETSGIGDSLLNVKCAAQTLEKRGKAKPKVNVKPSVVKVVSSPKLAPKRKAVEMHAAVIAAVKPLSSSSVLQEPPAKKAAVAVVPLVSEDKSVTVPEAENPRDSLVLPPTQSSSDSSPPEVSGPSSSQMSMKTRRLSSASTGKPPLSVEDDFEKLIWEISGGKLEAEIDLDPGKDEDDLLLELSEMIDS
B6: Galectin-8 (Homo sapiens), O00214 (parent)
chain: MMLSLNNLQNIIYNPVIPFVGTIPDQLDPGTLIVIRGHVPSDADRFQVDLQNGSSMKPRADVAFHFNPRFKRAGCIVCNTLINEKWGREEITYDTPFKREKSFEIVIMVLKDKFQVAVNGKHTLLYGHRIGPEKIDTLGIYGKVNIHSIGFSFSSDLQSTQASSLELTEISRENVPKSGTPQLRLPFAARLNTPMGPGRTVVVKGEVNANAKSFNVDLLAGKSKDIALHLNPRLNIKAFVRNSFLQESWGEEERNITSFPFSPGMYFEMIIYCDVREFKVAVNGVHSLEYKHRFKELSSIDTLEINGDIHLLEVRSW
B7: Late cornified envelope protein 1B (Homo sapiens), Q5T7P3 (parent)
chain: B1 chain
partner: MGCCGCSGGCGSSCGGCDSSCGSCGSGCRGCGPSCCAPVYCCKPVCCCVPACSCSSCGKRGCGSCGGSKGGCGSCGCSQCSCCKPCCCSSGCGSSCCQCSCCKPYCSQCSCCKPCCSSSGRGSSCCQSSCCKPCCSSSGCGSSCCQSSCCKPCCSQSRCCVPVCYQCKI
B8: Late cornified envelope protein 1B (Homo sapiens), Q5T7P3 (parent)
chain: B1 chain
partner: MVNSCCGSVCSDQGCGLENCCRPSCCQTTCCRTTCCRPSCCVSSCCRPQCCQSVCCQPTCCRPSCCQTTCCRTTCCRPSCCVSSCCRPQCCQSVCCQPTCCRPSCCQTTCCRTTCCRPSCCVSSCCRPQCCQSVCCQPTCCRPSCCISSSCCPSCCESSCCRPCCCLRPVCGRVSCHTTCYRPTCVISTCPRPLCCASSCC

In the first experiment the parent is B1. Conditions: with rgs20_human RGS20, O76081.
With MSCQQNQQQCQPPPKYIPKCPPKCLTPRCPPKCPPKCPPVSSCCSVSSGGCCGSSSGGSCGSSSGGCCSSGGGGCCLSHHRRRRSHCHRPQSSGCCSQPSGGSSCCGGGSGQHSGGCC, the “effect of a mutation on the interaction” value is given as “with no effect”.

The next experiment covers variants of B2. The note with it: with kra94_human KRTAP9-4, Q9BYQ2.
With MSCQQNQQQCQPPPKYIPKCPPKCLTPRCPPKCPPKCPPVSSCCSVSSGGCCGSSSGGSCGSSSGGCCSSGGGGCCLSHHRRRRSHCHRPQSSGCCSQPSGGSSCCGGGSGQHSGGCC, the “effect of a mutation on the interaction” value is given as “disrupting interaction strength”.

The variants in a further experiment derive from B3. The note with it: with spy2_human SPRY2, O43597.
For the variant MSCQQNQQQCQPPPKYIPKCPPKCLTPRCPPKCPPKCPPVSSCCSVSSGGCCGSSSGGSCGSSSGGCCSSGGGGCCLSHHRRRRSHCHRPQSSGCCSQPSGGSSCCGGGSGQHSGGCC, the “effect of a mutation on the interaction” value is given as “with no effect”.

The variants in another experiment derive from B4. The note with it: with tri39_human TRIM39, Q9HCM9.
Take MEAVELARKLQEEATCSICLDYFTDPVMTTCGHNFCRACIQLSWEKARGKKGRRKRKGSFPCPECREMSPQRNLLPNRLLTKVAEMAQQHPGLQKQDLCQEHHEPLKLFCQKDQSPICVVCRESREHRLHRVLPAEEAVQGYKLKLEEDMEYLREQITTTGNLQAREEQSLAEWQGKVKERRERIVLEFEKMNLYLVEEEQRLLQALETEEEETASRLRESVACLDRQGHSLELLLLQLEERSTQGPLQMLQDMKEPLSRKNNVSVQCPEVAPPTRPRTVCRVPGQIEVLRGFLEDVVPDATSAYPYLLLYESRQRRYLGSSPEGSGFCSKDRFVAYPCAVGQTAFSSGRHYWEVGMNITGDALWALGVCRDNVSRKDRVPKCPENGFWVVQLSKGTKYLSTFSALTPVMLMEPPSHMGIFLDFEAGEVSFYSVSDGSHLHTYSQATFPGPLQPFFCLGAPKSGQMVISTVTMWVKG [R159T]: the “effect of a mutation on the interaction” value is “with no effect”.

Variants of B5 are the subject of a further experiment. The note with it: with mlh1_human MLH1, P40692.
Sequence of mlh1_human MLH1, P40692 (P40692 whole entry): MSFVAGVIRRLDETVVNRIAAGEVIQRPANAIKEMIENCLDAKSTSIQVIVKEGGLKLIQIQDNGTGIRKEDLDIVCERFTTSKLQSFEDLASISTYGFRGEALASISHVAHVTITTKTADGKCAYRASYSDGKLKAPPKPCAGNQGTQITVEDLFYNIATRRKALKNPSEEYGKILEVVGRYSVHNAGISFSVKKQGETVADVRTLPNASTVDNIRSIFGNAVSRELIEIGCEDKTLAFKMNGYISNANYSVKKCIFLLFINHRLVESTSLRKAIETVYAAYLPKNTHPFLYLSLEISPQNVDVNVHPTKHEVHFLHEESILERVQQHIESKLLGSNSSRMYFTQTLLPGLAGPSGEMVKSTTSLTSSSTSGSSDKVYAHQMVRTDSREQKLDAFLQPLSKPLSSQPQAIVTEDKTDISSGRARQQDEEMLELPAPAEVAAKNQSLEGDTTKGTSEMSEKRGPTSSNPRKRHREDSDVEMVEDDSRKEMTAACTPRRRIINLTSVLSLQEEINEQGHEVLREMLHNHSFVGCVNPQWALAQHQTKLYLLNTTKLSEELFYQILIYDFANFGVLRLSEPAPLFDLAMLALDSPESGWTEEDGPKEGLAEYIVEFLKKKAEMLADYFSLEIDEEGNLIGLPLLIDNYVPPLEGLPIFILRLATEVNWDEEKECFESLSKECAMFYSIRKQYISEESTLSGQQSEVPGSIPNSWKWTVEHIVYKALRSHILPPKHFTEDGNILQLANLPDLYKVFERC
As to E408D, the “effect of a mutation on the interaction” value was “with no effect”.

Variants of B6 are the subject of another experiment. The note with it: with taxb1_human TAX1BP1, Q86VP1.
Sequence of taxb1_human TAX1BP1, Q86VP1 (Q86VP1 whole entry): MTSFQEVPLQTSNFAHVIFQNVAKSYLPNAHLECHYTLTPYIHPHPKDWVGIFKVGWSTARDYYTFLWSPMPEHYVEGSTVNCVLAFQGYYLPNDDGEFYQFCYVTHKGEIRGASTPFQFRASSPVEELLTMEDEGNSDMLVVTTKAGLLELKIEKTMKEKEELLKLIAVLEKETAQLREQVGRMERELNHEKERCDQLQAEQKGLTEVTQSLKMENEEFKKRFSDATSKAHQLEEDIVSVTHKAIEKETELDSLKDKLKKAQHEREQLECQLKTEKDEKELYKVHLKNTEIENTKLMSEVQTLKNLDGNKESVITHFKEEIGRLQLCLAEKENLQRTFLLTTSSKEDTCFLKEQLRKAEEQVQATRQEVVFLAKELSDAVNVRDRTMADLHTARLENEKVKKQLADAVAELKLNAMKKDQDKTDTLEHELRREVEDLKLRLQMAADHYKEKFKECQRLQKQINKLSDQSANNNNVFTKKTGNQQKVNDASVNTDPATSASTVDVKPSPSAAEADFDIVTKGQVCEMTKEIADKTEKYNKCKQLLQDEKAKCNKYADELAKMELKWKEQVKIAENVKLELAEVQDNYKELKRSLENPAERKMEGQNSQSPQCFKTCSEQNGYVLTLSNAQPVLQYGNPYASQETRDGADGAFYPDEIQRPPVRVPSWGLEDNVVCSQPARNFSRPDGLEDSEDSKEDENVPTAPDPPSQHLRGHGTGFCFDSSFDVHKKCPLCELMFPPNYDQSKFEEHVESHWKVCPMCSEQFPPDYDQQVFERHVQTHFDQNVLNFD
For the variant MMLSLNNLQNIIYNPVIPFVGTIPDQLDPGTLIVIRGHVPSDADRFQVDLQNGSSMKPRADVAFHFNPRFKRAGCIVCNTLINEKWGREEITYDTPFKREKSFEIVIMVLKDKFQVAVNGKHTLLYGHRIGPEKIDTLGIYGKVNIHSIGFSFSSDLQSTQASSLELTEISRENVPKSGTPQLRLPFAARLNTTMGPGRTVVVKGEVNANAKSFNVDLLAGKSKDIALHLNPRLNIKAFVRNSFLQESWGEEERNITSFPFSPGMYFEMIIYCDVREFKVAVNGVHSLEYKHRFKELSSIDTLEINGDIHLLEVRSW [P194T], the “effect of a mutation on the interaction” value is listed as “with no effect”.

Variants of B7 are the subject of the next experiment. The note with it: with kra59_human KRTAP5-9, P26371.
On to MSCQQNQQQCQPPPKYIPKCPPKCLTPRCPPKCPPKCPPVSSCCSVSSGGCCGSSSGGSCGSSSGGCCSSGGGGCCLSHHRRRRSHCHRPQSSGCCSQPSGGSSCCGGGSGQHSGGCC, for which the “effect of a mutation on the interaction” value was “disrupting interaction strength”.

A further experiment covers variants of B8. Conditions: with kr412_human KRTAP4-12, Q9BQ66.
For MSCQQNQQQCQPPPKYIPKCPPKCLTPRCPPKCPPKCPPVSSCCSVSSGGCCGSSSGGSCGSSSGGCCSSGGGGCCLSHHRRRRSHCHRPQSSGCCSQPSGGSSCCGGGSGQHSGGCC, the “effect of a mutation on the interaction” value was “disrupting interaction strength”.
